Patent publication US20050287136A1 (Amgen, published 2005)

B1: 11.2.1 (antibody, human IgG2, kappa, V domains shown)
VH: QVQLVESGGGVVQPGRSLRLSCAASGFTFSSYGMHWVRQAPGKGLEWVAVIWYDGSNKYYADSVKGRFTISRDNSKNTLYLQMNSLRAEDTAVYYCARDPRGATLYYYYYGMDVWGQGTTVTVSS
VL: DIQMTQSPSSLSASVGDRVTITCRASQSINSYLDWYQQKPGKAPKLLIYAASSLQSGVPSRFSGSGSGTDFTLTISSLQPEDFATYYCQQYYSTPFTFGPGTKVEIKR
notes: also called CT11.2.1
B2: 3.1.1 (antibody, human IgG2, V domains shown)
VH: QVQLVESGGGVVQPGRSLRLSCAASGFTFSSYGMHWVRQAPGKGLEWVAVIWYDGSNKYYADSVKGRFTISRDNSKNTLYLQMNSLRAEDTAVYYCARGARIITPCMDVWGQGTTVTVSS
VL: DIQMTQSPSSLSASVGDRVTITCRASQSINTYLIWYQQKPGKAPNFLISATSILQSGVPSRFRGSGSGTNFTLTINSLHPEDFATYYCQQSYSTPFTFGPGTKVDIK
modifications: chain 1 pos 1: pyroglutamate from Gln (FIG. 9: NH2-Blocked, pQ), written Q
notes: Fully human IgG2 kappa; VH DP-50, VK 012; also called CT3.1.1
B3: 4.10.2 (antibody, human IgG2, V domains shown)
VH: QVQLVESGGGVVQPGRSLRLSCVASGFIFSSHGIHWVRQAPGKGLEWVAVIWYDGRNKDYADSVKGRFTISRDNSKNTLYLQMNSLRAEDTAVYYCARVAPLGPLDYWGQGTLVTVSS
VL: EFVLTQSPGTLSLSPGERATLSCRASQSISSNFLAWYQQKPGQAPRLLIYRPSSRATGIPDSFSGSGSGTDFTLTISRLEPEDFALYYCQQYGTSPFTFGPGTKVDIK
modifications: chain 1 pos 1: pyroglutamate from Gln (FIG. 9: NH2-Blocked, pQ), written Q
notes: Fully human IgG2 kappa; VH DP-50, VK A27; also called CT4.10.2

What was measured:
[1] = biological target: T1, CTLA-4-IgG1 fusion protein (OM-CTLA4-IgG1, made in-house) (human); assay: selectivity ELISA, coated CTLA-4/Ig against hIgG
T1 construct: covalent dimer through cysteine 120 of CTLA-4; The marks for signal peptide (underline) and CTLA4 domain are lost in the text; also called CTLA-4-Ig fusion protein; human CTLA4-IgG
T1 sequence (chain, as listed by the source): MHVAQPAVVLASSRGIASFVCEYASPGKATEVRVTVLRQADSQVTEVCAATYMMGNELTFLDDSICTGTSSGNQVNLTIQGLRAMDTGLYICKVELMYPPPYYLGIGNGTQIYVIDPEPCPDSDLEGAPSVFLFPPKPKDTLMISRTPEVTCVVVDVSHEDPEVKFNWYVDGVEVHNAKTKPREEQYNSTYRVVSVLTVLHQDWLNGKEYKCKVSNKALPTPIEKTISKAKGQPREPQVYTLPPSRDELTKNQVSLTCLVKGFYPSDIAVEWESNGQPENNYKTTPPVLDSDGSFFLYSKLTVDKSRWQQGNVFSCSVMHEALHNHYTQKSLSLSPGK

[2] = biological target: T2, CTLA-4-Ig(G4) (Repligen, Inc.) (UniProt P16410 37-161, limits assumed); assay: competition ELISA (separate experiment), antibody with CTLA-4-Ig(G4) 0.3 nM on coated B7.2-Ig(G1)
T2 sequence (P16410 37-161 limits assumed): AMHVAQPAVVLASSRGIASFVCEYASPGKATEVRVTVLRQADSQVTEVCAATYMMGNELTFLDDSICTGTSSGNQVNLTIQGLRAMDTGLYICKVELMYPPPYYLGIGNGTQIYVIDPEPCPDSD

[3] = biological target: T1, CTLA-4-IgG1 fusion protein …; assay: selectivity ELISA, coated CTLA-4/Ig against CD28/Ig
[4] = biological target: T2, CTLA-4-Ig(G4) (Repligen, Inc.); assay: competition ELISA (separate experiment), antibody with CTLA-4-Ig(G4) 0.3 nM on coated B7.1-Ig(G1)
[5] = biological target: T1, CTLA-4-IgG1 fusion protein …; assay: selectivity ELISA, coated CTLA-4/Ig against B7.2/Ig
[6] = biological target: T1, CTLA-4-IgG1 fusion protein …; assay: selectivity ELISA, coated CTLA-4/Ig against CD44/Ig, antibody 1 ug/ml
[7] = biological target: T1, CTLA-4-IgG1 fusion protein …; assay: BIAcore, immobilised CTLA-4-Ig fusion, 878.7 RU
[8] = biological target: T2, CTLA-4-Ig(G4) (Repligen, Inc.); assay: competition ELISA, antibody with CTLA-4-Ig(G4) 0.3 nM on coated B7.2-Ig(G1)
[9] = biological target: T2, CTLA-4-Ig(G4) (Repligen, Inc.); assay: competition ELISA, antibody with CTLA-4-Ig(G4) 0.3 nM on coated B7.1-Ig(G1)
[10] = biological target: T1, CTLA-4-IgG1 fusion protein …; assay: BIAcore, immobilised CTLA-4-Ig fusion, 457.2 RU
[11] = biological target: T1, CTLA-4-IgG1 fusion protein …; assay: selectivity ELISA, coated CTLA-4/Ig against CD28/Ig, antibody 1 ug/ml
[12] = biological target: T1, CTLA-4-IgG1 fusion protein …; assay: BIAcore, immobilised CTLA-4-Ig fusion, 397.8 RU
[13] = biological target: T1, CTLA-4-IgG1 fusion protein …; assay: selectivity ELISA, coated CTLA-4/Ig against B7.2/Ig, antibody 1 ug/ml
[14] = biological target: T1, CTLA-4-IgG1 fusion protein …; assay: BIAcore, immobilised CTLA-4-Ig fusion, 504.5 RU

Binder	Ka [7]	Kd [7]	koff [7]	kon [7]	IC50 [8]	IC50 [9]	Ka [10]	Kd [10]	koff [10]	kon [10]	Ka [14]	Kd [14]	koff [14]	kon [14]	further results
B1															selectivity ratio CTLA4/hIgG [1]: > 500 :1; IC50 [2]: 0.56 nM; selectivity ratio CTLA4/CD28 [3]: > 500 :1; IC50 [4]: 0.81 nM; selectivity ratio CTLA4/B7.2 [5]: > 500 :1
B2	1.07e+10 M⁻¹	0.093 nM	9.6e-05 s⁻¹	1.04e+06 M⁻¹ s⁻¹	0.45 nM	0.63 nM	4.4e+09 M⁻¹	0.227 nM	0.000165 s⁻¹	730000 M⁻¹ s⁻¹	5.5e+09 M⁻¹	0.182 nM	0.000172 s⁻¹	950000 M⁻¹ s⁻¹	selectivity ratio CTLA4/CD44 [6]: > 500 :1; selectivity ratio CTLA4/CD28 [11]: > 500 :1; Ka [12]: 4.4e+09 M⁻¹; Kd [12]: 0.228 nM; koff [12]: 0.000207 s⁻¹; kon [12]: 910000 M⁻¹ s⁻¹; selectivity ratio CTLA4/B7.2 [13]: > 500 :1
B3	3.9e+09 M⁻¹	0.254 nM	0.000253 s⁻¹	1e+06 M⁻¹ s⁻¹	1.5 nM	3.39 nM	1.4e+09 M⁻¹	0.721 nM	0.000505 s⁻¹	700000 M⁻¹ s⁻¹	2.2e+09 M⁻¹	0.455 nM	0.00043 s⁻¹	940000 M⁻¹ s⁻¹	
